3 molecules from PMC3183090, “A Noncoding Point Mutation of Zeb1 Causes Multiple Developmental Malformations and Obesity in Twirler Mice” can be followed below.

Data set [1] concerns the target T1, C-Myb (mouse, UniProt P06876 1-636). Nature of the data set: EMSA; 20 ul reactions with EMSA Accessory Kit (Novagen), 6% DNA retardation gel; buffer composition, salt, pH and temperature not stated. The following applies: protein: recombinant; tags: pET-41a(+) vector tags (Ni-NTA purified); blunt.
The target of data set [2] is T1, C-Myb. Nature of the data set: competition; unlabeled, 25- or 50-fold molar excess vs labeled N1; complete inhibition; 20 ul reactions with EMSA Accessory Kit (Novagen), 6% DNA retardation gel; buffer composition, salt, pH and temperature not stated. The following applies: protein: recombinant; tags: pET-41a(+) vector tags (Ni-NTA purified); 5' overhang 1 nt on strand 1 as printed (S6 lacks the 3' C). (A gel shift assay detects complexes by their altered migration in electrophoresis.)

T1 sequence (P06876 whole entry): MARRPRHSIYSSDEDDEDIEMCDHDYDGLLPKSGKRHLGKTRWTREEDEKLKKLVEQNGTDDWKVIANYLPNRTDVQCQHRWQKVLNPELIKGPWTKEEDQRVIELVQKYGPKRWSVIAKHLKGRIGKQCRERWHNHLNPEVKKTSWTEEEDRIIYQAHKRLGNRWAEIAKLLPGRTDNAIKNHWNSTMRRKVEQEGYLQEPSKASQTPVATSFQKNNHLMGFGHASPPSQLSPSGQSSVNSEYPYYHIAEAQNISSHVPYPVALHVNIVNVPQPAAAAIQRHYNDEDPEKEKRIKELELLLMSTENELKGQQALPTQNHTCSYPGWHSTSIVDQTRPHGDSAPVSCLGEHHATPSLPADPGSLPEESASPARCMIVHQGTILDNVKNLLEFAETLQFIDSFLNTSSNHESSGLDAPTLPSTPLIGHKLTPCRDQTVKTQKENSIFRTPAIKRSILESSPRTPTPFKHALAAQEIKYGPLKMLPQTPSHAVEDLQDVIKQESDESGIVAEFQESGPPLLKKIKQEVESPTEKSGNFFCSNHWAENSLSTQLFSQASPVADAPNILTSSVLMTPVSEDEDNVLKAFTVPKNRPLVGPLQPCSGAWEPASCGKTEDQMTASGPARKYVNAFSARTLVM

B1: Zeb1 c.58+181A (Twirler) probe (dsDNA)
DNA 1: TGCTGGACTGGACCATTATGTCTTACCTGC
DNA 2: GCAGGTAAGACATAATGGTCCAGTCCAGCA
As for B1, in the data set with C-Myb [1], the binding result is recorded as “no binding”.

B2: Zeb1 c.58+181G (wild type) probe (dsDNA)
DNA 1: TGCTGGACTGGACCGTTATGTCTTACCTGC
DNA 2: GCAGGTAAGACATAACGGTCCAGTCCAGCA
With B2, in the data set with C-Myb [1], the binding result was “binds”.

B3: mim-1 C-Myb site control (dsDNA)
DNA 1: GCTCTAAAAAACCGTTATAATGTACAGATATCTT
DNA 2: AAGATATCTGTACATTATAACGGTTTTTTAGAG
Take B3: the binding result with C-Myb [2] is “binds”.
